Experimental findings from the RNAGym collection of RNA variant scans (doi:10.7554/elife.90254) are described below.

The labels stand for the following.
B1: LINE1-full (parent)
chain: UACGUAGGUGGUUUUCCCCUGAUAGUGCUAAGGGGGCCUGGAAGUUUGGACUGGGCAGAGCUCAACACAGCGUGGCAAAGUGGCUGUGGCUAGACUGCCUCUCUGGAUUCCUCGUCACUCAGCAGGGCAUCUCUGAGAGAAAUGCC

The variants in the series derive from B1. As to the kind of experiment: self-cleavage, relative activity (ratio to wild type); higher = more cleavage; in vitro, sequencing; the parent is a self-cleaving ribozyme.
As for U5C C66U, the self-cleavage was 0.13.

For the variant G4A C145U, the self-cleavage was 1.11.

Consider U5C A57U, for which the self-cleavage was found to be 0.29.

Turning to U5C A57G, the self-cleavage worked out at 0.93.

In the case of G4C U12G, the self-cleavage amounted to 0.93.

With U5C C38A, the self-cleavage worked out at 1.79.

Consider U5A U115C, for which the self-cleavage is 0.5.

With G4A G127A, the self-cleavage came to 1.67.

As to G4A U112C, the self-cleavage stood at 1.31.

Regarding U5C A6U, the self-cleavage is 1.09.

For U5C A6G, the self-cleavage was 0.65.

For G4A U81C, the self-cleavage was found to be 1.44.

Turning to U5C A140U, the self-cleavage was determined as 0.86.

For G4C A22G, the self-cleavage stood at 0.99.

G4A C116A: the self-cleavage was 1.22.

Turning to G4A U15C, the self-cleavage is 1.11.

With U5A U14A, the self-cleavage was 1.15.

As to U5A U14C, the self-cleavage amounted to 0.85.

Consider U5C A136G, for which the self-cleavage was determined as 1.62.

For G4A U130A, the self-cleavage was 0.55.

With G4A A42U, the self-cleavage was found to be 0.78.

Take U5A U47A: the self-cleavage was 0.59.

As for U5A U52A, the self-cleavage worked out at 0.52.

Consider U5C A69G, for which the self-cleavage is 0.78.

For U5C A141G, the self-cleavage was determined as 0.92.

Consider C3U U104C, for which the self-cleavage came out at 1.53.

Turning to U5A U100C, the self-cleavage is 0.82.

For U5A U100A, the self-cleavage was 0.51.

As for G4A C17A, the self-cleavage amounted to 0.92.

In the case of U5A G44A, the self-cleavage came to 0.81.

For the variant G4A A92G, the self-cleavage came out at 0.

With U5C C18A, the self-cleavage came out at 0.67.

In the case of G4U U13C, the self-cleavage worked out at 0.93.

On to G4A A64U, for which the self-cleavage was determined as 0.72.

U5C A78G: the self-cleavage was 1.18.

Consider G4A U20C, for which the self-cleavage amounted to 1.2.

Take U5A A22G: the self-cleavage is 0.73.

Turning to G4A G93A, the self-cleavage stood at 0.03.

G4A U96A: the self-cleavage was found to be 0.08.

As to C3U U130C, the self-cleavage is 0.31.

For G4U U73C, the self-cleavage stood at 2.45.

Turning to G4A G10A, the self-cleavage was 1.21.

For G4C U91A, the self-cleavage came out at 0.75.

In the case of G4U U96A, the self-cleavage was determined as 0.09.

Take U5C C76U: the self-cleavage was 1.88.

With G4U C110A, the self-cleavage is 1.56.

On to U5C C37U, for which the self-cleavage came to 1.02.

U5A U9A: the self-cleavage came to 0.

Take G4A A67G: the self-cleavage was determined as 0.62.

On to U5A U62C, for which the self-cleavage is 0.05.

For the variant U5A A59U, the self-cleavage was 0.52.

As for U5A A59G, the self-cleavage is 0.11.

In the case of G4U U130A, the self-cleavage was 1.16.

Take U5A U39A: the self-cleavage stood at 0.8.

U5A U26A: the self-cleavage was 1.37.

Consider G4A G34A, for which the self-cleavage amounted to 0.66.

On to U5A G36C, for which the self-cleavage worked out at 1.16.

With C3U U143C, the self-cleavage worked out at 0.62.

Turning to G4A U9C, the self-cleavage came out at 0.69.

As for U5A A121G, the self-cleavage was 0.84.

For the variant U5A A138G, the self-cleavage was 0.75.

On to C3U U112A, for which the self-cleavage came out at 1.38.

Turning to U5C A142G, the self-cleavage stood at 1.15.

For G4A A24U, the self-cleavage came out at 1.8.

On to G4A U13C, for which the self-cleavage was 1.12.

For the variant U5C A129C, the self-cleavage was 1.69.

Regarding U5C A129U, the self-cleavage was determined as 1.05.

Take G4A U26C: the self-cleavage turned out to be 0.61.

In the case of U5A U87A, the self-cleavage was found to be 0.15.

G4C A107G: the self-cleavage amounted to 0.29.

Regarding G4A U39A, the self-cleavage stood at 0.54.

As for G4A U39C, the self-cleavage came to 1.31.

Consider G4U U20C, for which the self-cleavage was determined as 1.33.

Take U5C A92G: the self-cleavage turned out to be 0.

Regarding U5A U112C, the self-cleavage was 0.71.

As to U5A A78U, the self-cleavage worked out at 1.89.

As for G4C U130A, the self-cleavage came to 1.1.

Turning to U5A G125U, the self-cleavage came out at 0.15.

Regarding U5C A94C, the self-cleavage is 0.

As to U5C A94U, the self-cleavage was 0.76.

On to G4C U85C, for which the self-cleavage was determined as 0.13.

In the case of U5A C61A, the self-cleavage turned out to be 0.03.

Turning to G4A A94G, the self-cleavage came to 0.21.

With U5A A140G, the self-cleavage came to 0.88.

For U5C A117G, the self-cleavage stood at 0.81.

For the variant U5C A117U, the self-cleavage is 1.03.

On to U5C A43U, for which the self-cleavage was found to be 1.48.

Turning to U5C A43G, the self-cleavage was determined as 1.03.

Take U5A U46A: the self-cleavage is 0.82.

On to U5A U46C, for which the self-cleavage worked out at 1.03.

As to G4A G70U, the self-cleavage is 0.11.

U5A A129U: the self-cleavage came to 1.47.

Regarding G4C U15C, the self-cleavage was determined as 1.18.

Consider G4A U62C, for which the self-cleavage came to 0.

On to U5A A124U, for which the self-cleavage turned out to be 1.2.

Consider U5A A124G, for which the self-cleavage turned out to be 1.75.

On to G4U U45A, for which the self-cleavage was determined as 1.04.

With G4A A59G, the self-cleavage was determined as 0.12.

With G4C U100C, the self-cleavage came out at 1.81.

G4A A107G: the self-cleavage was determined as 1.6.

For the variant U5C A138G, the self-cleavage was determined as 1.18.

For the variant U5C A138U, the self-cleavage was determined as 1.58.

Consider G4A A136U, for which the self-cleavage was found to be 1.51.

Regarding U5A U96C, the self-cleavage worked out at 0.45.

U5A A79G: the self-cleavage came out at 0.87.

On to U5A A79U, for which the self-cleavage came out at 0.77.

In the case of G4A A31G, the self-cleavage amounted to 0.6.

On to G4A U102G, for which the self-cleavage amounted to 0.26.

For the variant G4A U102C, the self-cleavage was 0.82.

Turning to G4U A129G, the self-cleavage turned out to be 1.07.

Consider U5A A67U, for which the self-cleavage was 0.14.

For G4C U112C, the self-cleavage was 1.42.

As to U5C A64U, the self-cleavage is 0.49.

Turning to G4A A121G, the self-cleavage was 1.78.

For the variant G4A A43U, the self-cleavage was 1.21.

As to G4C U87C, the self-cleavage stood at 0.74.

As to U5C A67G, the self-cleavage worked out at 0.67.

On to U5A U130C, for which the self-cleavage stood at 0.96.

In the case of U5A A141G, the self-cleavage stood at 1.23.

With G4A U108G, the self-cleavage came out at 0.96.

In the case of U5A A50G, the self-cleavage was 0.78.

For U5A U20A, the self-cleavage is 1.12.

For G4A G125A, the self-cleavage is 0.86.

Consider U5A C98U, for which the self-cleavage was 0.53.

On to U5A C110U, for which the self-cleavage came to 0.34.

Consider C3U U119G, for which the self-cleavage came out at 0.98.

Regarding C3U U119A, the self-cleavage came out at 0.83.

For the variant G4A A30G, the self-cleavage is 0.59.

Take U5A A65U: the self-cleavage amounted to 0.26.

As to U5A A65G, the self-cleavage is 0.08.

G4U A69G: the self-cleavage was 0.32.

As to U5C A65G, the self-cleavage was 0.15.

For the variant U5C A65U, the self-cleavage worked out at 0.26.

Take G4C U132C: the self-cleavage was 0.97.

For the variant U5A U13C, the self-cleavage amounted to 0.99.

Turning to G4C, the self-cleavage amounted to 1.17.

As for G4U, the self-cleavage worked out at 1.25.

For G4A, the self-cleavage amounted to 0.89.

Take U5A A31G: the self-cleavage was determined as 0.82.

U5A A31U: the self-cleavage stood at 1.1.

For the variant U5A G34U, the self-cleavage came to 0.88.

Consider G4C A65G, for which the self-cleavage amounted to 0.08.

G4U U100C: the self-cleavage came to 1.73.

With U5A U132C, the self-cleavage was determined as 1.25.

Take C3U U132C: the self-cleavage is 1.1.

On to G4C A140G, for which the self-cleavage was 1.19.

As to G4C G135A, the self-cleavage was found to be 0.56.

For the variant U5A G32A, the self-cleavage is 0.93.

For the variant U5C A50U, the self-cleavage turned out to be 0.64.

U5A U85C: the self-cleavage came out at 0.2.

On to U5A U85G, for which the self-cleavage is 0.16.

G4U C61U: the self-cleavage amounted to 0.08.

For the variant G4A G75A, the self-cleavage turned out to be 0.87.

For G4A U12C, the self-cleavage came to 0.77.

Regarding G4U A142G, the self-cleavage was 1.46.

On to U5A A42G, for which the self-cleavage is 1.15.

As for U5A C90G, the self-cleavage was 0.09.

With G4A U46A, the self-cleavage turned out to be 1.17.

For the variant G4A U87A, the self-cleavage amounted to 0.12.

G4A U100C: the self-cleavage stood at 1.21.

Take G4A U45C: the self-cleavage worked out at 0.57.

For U5A U15C, the self-cleavage was 0.94.

With G4C U115A, the self-cleavage came to 1.51.

Consider G4A U85A, for which the self-cleavage came to 0.04.

Consider G4A C19U, for which the self-cleavage was 0.59.

Take U5A G40A: the self-cleavage was determined as 1.01.

On to G4U G80C, for which the self-cleavage was 1.07.
